Biological target: T1, Suc-AEPF-pNA peptide substrate
T1 chain: AEPF

B1: mutant PIN1 PPIase (K77Q/K82Q) (protein)
chain: GSHMGKNGQGEPARVRCSHLLVKHSQSRRPSSWRQEQITRTQEEALELINGYIQKIKSGEEDFESLASQFSDCSSAKARGDLGAFSRGQMQKPFEDASFALRTGEMSGPVFTDSGIHIILRTE
  Km: The Km for this substrate was much higher than 100 µM ([S]<<Km)
  rate (rate constant k of the peptidyl-prolyl isomerase reaction): both wild type human PIN1 and mutant PIN1 PPIAse, at 0.033 nM with 100 µM Suc-AEPF-pNA, had a rate of 0.2
